Assay results from paper PMC6514633, “Structural and functional consequences of age-related isomerization in α-crystallins” (The Journal of Biological Chemistry, 2019).
One block for each binder: values may come before it. Where no end group is shown, it is not given here. [ ]: non-standard residue; d: D form.

B2: Core αB (cABC, residues 68–153) (domain or fragment, human, UniProt P02511 68-153, looked up)
chain: MRLEKDRFSVNLDVKHFSPEELKVKVLGDVIEVHGKHEERQDEHGFISREFHRKYRIPADVDPLTITSSLSSDGVLTVNGPRKQVS
notes: αB-crystallin, human, α-crystallin core domain, residues 68-153; also called αB core; core of αB

Tests used:
[1] = biological target: core αA (cAAC, residues 59–153) (human, UniProt P02489 59-153, some population of BME-adducted protein); experiment: native MS; competition: core domain 10 μM mixed with an L-Ser and a D-Ser peptide (one with added glycines), 40 μM each (4:1 peptide/domain), 200 mM ammonium acetate pH 6.9; monomeric species, 5+, 6+, 7+ charge states quantified; details: both partners purified
[2] = biological target: B2; experiment: as above; details: both partners purified
[3] = biological target: the molecule itself; experiment: native MS; core domains analysed alone, 10 μM, 200 mM ammonium acetate pH 6.9, Synapt G1
[4] = biological target: the molecule itself; experiment: native MS; full-length αB and mutants, 15 μM by monomer, 200 mM ammonium acetate pH 6.9, QExactive Orbitrap; intact spectra and CID with charge deconvolution (UniDec) to oligomeric distributions
[5] = biological target: core αA (cAAC, residues 59-153) (human, UniProt P02489 59-153, some population of BME-adducted protein); experiment: native MS; competition: 10 μM core domain with 40 μM each of L-Ser and D-Ser peptide, 200 mM ammonium acetate pH 6.9; monomeric species, 5+, 6+ and 7+ charge states; approximate dissociation constants calculated from abundance ratios (El-Hawiet et al.); details: both partners purified
core αA (cAAC, residues 59-153), sequence (P02489 59-153): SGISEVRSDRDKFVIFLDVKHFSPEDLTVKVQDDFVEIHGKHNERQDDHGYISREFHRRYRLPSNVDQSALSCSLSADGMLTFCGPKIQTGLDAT

core αA (cAAC, residues 59–153), sequence (P02489 59-153): as above

Kd [1]: 48 µM
Kd [2]: 115 µM
B1: Ct peptide ERAIPVSRE with L-Ser (canonical all L-amino acid form) (peptide)
peptide: ERAIPVSRE

Binder: B2
stoichiometry N [3]: 2

B3: Full-length αB-crystallin (WT) (natural protein, human, UniProt P02511 1-175, looked up)
chain: MDIAIHHPWIRRPFFPFHSPSRLFDQFFGEHLLESDLFPTSTSLSPFYLRPPSFLRAPSWFDTGLSEMRLEKDRFSVNLDVKHFSPEELKVKVLGDVIEVHGKHEERQDEHGFISREFHRKYRIPADVDPLTITSSLSSDGVLTVNGPRKQVSGPERTIPITREEKPAVTAAPKK
notes: αB-crystallin, human, full length; Polydisperse oligomers; also called WT αB
binding result [4]: binds

B4: Full-length αB-crystallin S59D (phosphomimic) (natural protein, human, UniProt P02511 1-175, looked up)
chain: MDIAIHHPWIRRPFFPFHSPSRLFDQFFGEHLLESDLFPTSTSLSPFYLRPPSFLRAPDWFDTGLSEMRLEKDRFSVNLDVKHFSPEELKVKVLGDVIEVHGKHEERQDEHGFISREFHRKYRIPADVDPLTITSSLSSDGVLTVNGPRKQVSGPERTIPITREEKPAVTAAPKK
notes: αB-crystallin, human, full length, with S59D; also called αBS59D; source: expressed and purified in the same manner as WT
stoichiometry N [4]: ~18

B5: Full-length αB-crystallin D109A (isoAsp-mimic) (natural protein, human, UniProt P02511 1-175, looked up)
chain: MDIAIHHPWIRRPFFPFHSPSRLFDQFFGEHLLESDLFPTSTSLSPFYLRPPSFLRAPSWFDTGLSEMRLEKDRFSVNLDVKHFSPEELKVKVLGDVIEVHGKHEERQAEHGFISREFHRKYRIPADVDPLTITSSLSSDGVLTVNGPRKQVSGPERTIPITREEKPAVTAAPKK
notes: αB-crystallin, human, full length, with D109A; source: expressed and purified in the same manner as WT
binding result [4]: binds

Kd [5]: 660 µM
B6: C-terminal palindromic peptide of αA-crystallin with D-Ser-162 (D-peptide) (peptide)
chain: ERAIPV[dS]RE

binding result [1]: binds
binding result [2]: binds
B7: G-Ct-G peptide GERAIPVSREG with L-Ser (appended-glycine L-isomer) (peptide)
peptide: GERAIPVSREG
